According to patent publication US20210032299A1 (Eli Lilly, published 2021):
Starred links: 1 amine or outer side, 2 acyl side, 3 side chain; linkers in the order of their positions; H or OH if unused. Non-standard residues stand in square brackets, D forms with d. Groups on a side chain read outwards from the residue. No end group written: not given here. *: point of attachment. C20 diacid = O=C(O)CCCCCCCCCCCCCCCCCCC(=O)*; γGlu = O=C(O)[C@H](CCC(=O)[*:2])N[*:1]; αMeF = C[C@](N)(Cc1ccccc1)C(=O)O; 4Pal = N[C@@H](Cc1ccncc1)C(=O)O; αMeL = CC(C)C[C@](C)(N)C(=O)O; AEEA = NCCOCCOCC(=O)O; Aib = CC(C)(N)C(=O)O

T1: human glucose-dependent insulinotropic peptide receptor (human, UniProt P48546 22-466)
T1 sequence (looked up): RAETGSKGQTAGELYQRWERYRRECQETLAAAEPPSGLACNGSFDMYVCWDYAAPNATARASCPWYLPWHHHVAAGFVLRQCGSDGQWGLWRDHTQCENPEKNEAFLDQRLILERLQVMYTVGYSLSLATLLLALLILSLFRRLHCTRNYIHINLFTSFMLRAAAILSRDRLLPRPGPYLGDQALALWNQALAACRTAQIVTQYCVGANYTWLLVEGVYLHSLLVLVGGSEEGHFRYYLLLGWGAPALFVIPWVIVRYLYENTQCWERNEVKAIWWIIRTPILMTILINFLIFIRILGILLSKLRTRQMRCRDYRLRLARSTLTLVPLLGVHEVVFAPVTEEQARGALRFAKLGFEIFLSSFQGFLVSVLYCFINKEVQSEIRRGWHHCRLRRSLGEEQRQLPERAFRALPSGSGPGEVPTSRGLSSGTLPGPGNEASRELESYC


Legend:
Test in all cases: cell-based or functional assay
[1] = molecular target: human GLP-1 receptor (human, UniProt P43220 24-463)
[2] = molecular target: human glucagon receptor (human, UniProt P47871 26-477)
[3] = molecular target: T1, human glucose-dependent insulinotropic …

human glucagon receptor, sequence (P47871 26-477): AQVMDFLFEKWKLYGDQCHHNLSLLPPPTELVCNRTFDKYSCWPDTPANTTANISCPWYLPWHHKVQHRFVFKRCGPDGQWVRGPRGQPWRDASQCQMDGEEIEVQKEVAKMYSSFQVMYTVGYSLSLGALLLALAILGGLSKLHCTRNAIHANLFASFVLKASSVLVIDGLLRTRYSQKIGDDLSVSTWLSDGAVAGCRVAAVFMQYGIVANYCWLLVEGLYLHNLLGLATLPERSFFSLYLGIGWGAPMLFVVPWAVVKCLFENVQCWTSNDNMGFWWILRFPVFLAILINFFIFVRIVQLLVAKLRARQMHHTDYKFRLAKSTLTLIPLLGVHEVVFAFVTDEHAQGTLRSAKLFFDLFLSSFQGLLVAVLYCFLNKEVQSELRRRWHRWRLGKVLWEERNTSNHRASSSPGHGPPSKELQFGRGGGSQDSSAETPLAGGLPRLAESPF

Binder	hGLP1R cAMP Rel EC50 [1] [nM]	hGcgR cAMP Rel EC50 [2] [nM]	hGIPR cAMP Rel EC50 [3] [nM]
Y[Aib]EGTFISDYSI[αMeL]LDKK([AEEA-AEEA-γGlu-C20 diacid])HQ[Aib]EFVEYLLEQGPSSGAPPPS-NH2 (N-terminus assumed; SMILES CC[C@H](C)[C@H](NC(=O)[C@H](Cc1ccccc1)NC(=O)[C@@H](NC(=O)CNC(=O)[C@H](CCC(=O)O)NC(=O)C(C)(C)NC(=O)[C@@H](N)Cc1ccc(O)cc1)[C@@H](C)O)C(=O)N[C@@H](CO)C(=O)N[C@@H](CC(=O)O)C(=O)N[C@@H](Cc1ccc(O)cc1)C(=O)N[C@@H](CO)C(=O)N[C@H](C(=O)N[C@@](C)(CC(C)C)C(=O)N[C@@H](CC(C)C)C(=O)N[C@@H](CC(=O)O)C(=O)N[C@@H](CCCCN)C(=O)N[C@@H](CCCCNC(=O)COCCOCCNC(=O)COCCOCCNC(=O)CC[C@H](NC(=O)CCCCCCCCCCCCCCCCCCC(=O)O)C(=O)O)C(=O)N[C@@H](Cc1c[nH]cn1)C(=O)N[C@@H](CCC(N)=O)C(=O)NC(C)(C)C(=O)N[C@@H](CCC(=O)O)C(=O)N[C@@H](Cc1ccccc1)C(=O)N[C@H](C(=O)N[C@@H](CCC(=O)O)C(=O)N[C@@H](Cc1ccc(O)cc1)C(=O)N[C@@H](CC(C)C)C(=O)N[C@@H](CC(C)C)C(=O)N[C@@H](CCC(=O)O)C(=O)N[C@@H](CCC(N)=O)C(=O)NCC(=O)N1CCC[C@H]1C(=O)N[C@@H](CO)C(=O)N[C@@H](CO)C(=O)NCC(=O)N[C@@H](C)C(=O)N1CCC[C@H]1C(=O)N1CCC[C@H]1C(=O)N1CCC[C@H]1C(=O)N[C@@H](CO)C(N)=O)C(C)C)[C@@H](C)CC) [Example 63]	> 5000	1170	0.0398
Y[Aib]EGT[αMeF]ISDYSI[αMeL]LDKK([AEEA-AEEA-γGlu-C20 diacid])HQ[Aib]EFVE[4Pal]LLAAGPSSGAPPPS-NH2 (N-terminus assumed; SMILES CC[C@H](C)[C@H](NC(=O)[C@H](CO)NC(=O)[C@H](Cc1ccc(O)cc1)NC(=O)[C@H](CC(=O)O)NC(=O)[C@H](CO)NC(=O)[C@@H](NC(=O)[C@](C)(Cc1ccccc1)NC(=O)[C@@H](NC(=O)CNC(=O)[C@H](CCC(=O)O)NC(=O)C(C)(C)NC(=O)[C@@H](N)Cc1ccc(O)cc1)[C@@H](C)O)[C@@H](C)CC)C(=O)N[C@@](C)(CC(C)C)C(=O)N[C@@H](CC(C)C)C(=O)N[C@@H](CC(=O)O)C(=O)N[C@@H](CCCCN)C(=O)N[C@@H](CCCCNC(=O)COCCOCCNC(=O)COCCOCCNC(=O)CC[C@H](NC(=O)CCCCCCCCCCCCCCCCCCC(=O)O)C(=O)O)C(=O)N[C@@H](Cc1c[nH]cn1)C(=O)N[C@@H](CCC(N)=O)C(=O)NC(C)(C)C(=O)N[C@@H](CCC(=O)O)C(=O)N[C@@H](Cc1ccccc1)C(=O)N[C@H](C(=O)N[C@@H](CCC(=O)O)C(=O)N[C@@H](Cc1ccncc1)C(=O)N[C@@H](CC(C)C)C(=O)N[C@@H](CC(C)C)C(=O)N[C@@H](C)C(=O)N[C@@H](C)C(=O)NCC(=O)N1CCC[C@H]1C(=O)N[C@@H](CO)C(=O)N[C@@H](CO)C(=O)NCC(=O)N[C@@H](C)C(=O)N1CCC[C@H]1C(=O)N1CCC[C@H]1C(=O)N1CCC[C@H]1C(=O)N[C@@H](CO)C(N)=O)C(C)C) [Example 62]	58.2	> 5000	0.0116
Y[Aib]EGTFISDYSI[αMeL]LDKK([AEEA-AEEA-γGlu-C20 diacid])HQ[Aib]DFVEYLLETGPSSGAPPPS-NH2 (N-terminus assumed; SMILES CC[C@H](C)[C@H](NC(=O)[C@H](Cc1ccccc1)NC(=O)[C@@H](NC(=O)CNC(=O)[C@H](CCC(=O)O)NC(=O)C(C)(C)NC(=O)[C@@H](N)Cc1ccc(O)cc1)[C@@H](C)O)C(=O)N[C@@H](CO)C(=O)N[C@@H](CC(=O)O)C(=O)N[C@@H](Cc1ccc(O)cc1)C(=O)N[C@@H](CO)C(=O)N[C@H](C(=O)N[C@@](C)(CC(C)C)C(=O)N[C@@H](CC(C)C)C(=O)N[C@@H](CC(=O)O)C(=O)N[C@@H](CCCCN)C(=O)N[C@@H](CCCCNC(=O)COCCOCCNC(=O)COCCOCCNC(=O)CC[C@H](NC(=O)CCCCCCCCCCCCCCCCCCC(=O)O)C(=O)O)C(=O)N[C@@H](Cc1c[nH]cn1)C(=O)N[C@@H](CCC(N)=O)C(=O)NC(C)(C)C(=O)N[C@@H](CC(=O)O)C(=O)N[C@@H](Cc1ccccc1)C(=O)N[C@H](C(=O)N[C@@H](CCC(=O)O)C(=O)N[C@@H](Cc1ccc(O)cc1)C(=O)N[C@@H](CC(C)C)C(=O)N[C@@H](CC(C)C)C(=O)N[C@@H](CCC(=O)O)C(=O)N[C@H](C(=O)NCC(=O)N1CCC[C@H]1C(=O)N[C@@H](CO)C(=O)N[C@@H](CO)C(=O)NCC(=O)N[C@@H](C)C(=O)N1CCC[C@H]1C(=O)N1CCC[C@H]1C(=O)N1CCC[C@H]1C(=O)N[C@@H](CO)C(N)=O)[C@@H](C)O)C(C)C)[C@@H](C)CC) [Example 66]	> 5000	> 5000	0.0786
Y[Aib]EGTFISDYSI[αMeL]LDKK([AEEA-AEEA-γGlu-C20 diacid])HQ[Aib]EFVEYLLETGPSSGAPPPS-NH2 (N-terminus assumed; SMILES CC[C@H](C)[C@H](NC(=O)[C@H](Cc1ccccc1)NC(=O)[C@@H](NC(=O)CNC(=O)[C@H](CCC(=O)O)NC(=O)C(C)(C)NC(=O)[C@@H](N)Cc1ccc(O)cc1)[C@@H](C)O)C(=O)N[C@@H](CO)C(=O)N[C@@H](CC(=O)O)C(=O)N[C@@H](Cc1ccc(O)cc1)C(=O)N[C@@H](CO)C(=O)N[C@H](C(=O)N[C@@](C)(CC(C)C)C(=O)N[C@@H](CC(C)C)C(=O)N[C@@H](CC(=O)O)C(=O)N[C@@H](CCCCN)C(=O)N[C@@H](CCCCNC(=O)COCCOCCNC(=O)COCCOCCNC(=O)CC[C@H](NC(=O)CCCCCCCCCCCCCCCCCCC(=O)O)C(=O)O)C(=O)N[C@@H](Cc1c[nH]cn1)C(=O)N[C@@H](CCC(N)=O)C(=O)NC(C)(C)C(=O)N[C@@H](CCC(=O)O)C(=O)N[C@@H](Cc1ccccc1)C(=O)N[C@H](C(=O)N[C@@H](CCC(=O)O)C(=O)N[C@@H](Cc1ccc(O)cc1)C(=O)N[C@@H](CC(C)C)C(=O)N[C@@H](CC(C)C)C(=O)N[C@@H](CCC(=O)O)C(=O)N[C@H](C(=O)NCC(=O)N1CCC[C@H]1C(=O)N[C@@H](CO)C(=O)N[C@@H](CO)C(=O)NCC(=O)N[C@@H](C)C(=O)N1CCC[C@H]1C(=O)N1CCC[C@H]1C(=O)N1CCC[C@H]1C(=O)N[C@@H](CO)C(N)=O)[C@@H](C)O)C(C)C)[C@@H](C)CC) [Example 64]	> 5000	3070	0.0448
Y[Aib]EGTFISDYSI[αMeL]LDKK([AEEA-AEEA-γGlu-C20 diacid])HQ[Aib]EFVEYLLEAGPSSGAPPPS-NH2 (N-terminus assumed; SMILES CC[C@H](C)[C@H](NC(=O)[C@H](Cc1ccccc1)NC(=O)[C@@H](NC(=O)CNC(=O)[C@H](CCC(=O)O)NC(=O)C(C)(C)NC(=O)[C@@H](N)Cc1ccc(O)cc1)[C@@H](C)O)C(=O)N[C@@H](CO)C(=O)N[C@@H](CC(=O)O)C(=O)N[C@@H](Cc1ccc(O)cc1)C(=O)N[C@@H](CO)C(=O)N[C@H](C(=O)N[C@@](C)(CC(C)C)C(=O)N[C@@H](CC(C)C)C(=O)N[C@@H](CC(=O)O)C(=O)N[C@@H](CCCCN)C(=O)N[C@@H](CCCCNC(=O)COCCOCCNC(=O)COCCOCCNC(=O)CC[C@H](NC(=O)CCCCCCCCCCCCCCCCCCC(=O)O)C(=O)O)C(=O)N[C@@H](Cc1c[nH]cn1)C(=O)N[C@@H](CCC(N)=O)C(=O)NC(C)(C)C(=O)N[C@@H](CCC(=O)O)C(=O)N[C@@H](Cc1ccccc1)C(=O)N[C@H](C(=O)N[C@@H](CCC(=O)O)C(=O)N[C@@H](Cc1ccc(O)cc1)C(=O)N[C@@H](CC(C)C)C(=O)N[C@@H](CC(C)C)C(=O)N[C@@H](CCC(=O)O)C(=O)N[C@@H](C)C(=O)NCC(=O)N1CCC[C@H]1C(=O)N[C@@H](CO)C(=O)N[C@@H](CO)C(=O)NCC(=O)N[C@@H](C)C(=O)N1CCC[C@H]1C(=O)N1CCC[C@H]1C(=O)N1CCC[C@H]1C(=O)N[C@@H](CO)C(N)=O)C(C)C)[C@@H](C)CC) [Example 65]	> 5000	850	0.0346
